Measured values published in publication doi:10.1101/2020.03.20.999888 (bioRxiv, 2020).

T1: GspM (P. aeruginosa, UniProt P25061 1-174)
T1 sequence: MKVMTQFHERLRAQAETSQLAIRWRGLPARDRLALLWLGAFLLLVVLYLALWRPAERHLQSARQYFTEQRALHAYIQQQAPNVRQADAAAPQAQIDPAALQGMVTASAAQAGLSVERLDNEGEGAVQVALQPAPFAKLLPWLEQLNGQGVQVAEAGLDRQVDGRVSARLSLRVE


Tests used:
[1] = molecular target: T1, GspM; test: SEC-MALS
[2] = molecular target: the molecule itself; test: SEC-MALS

Binder | stoichiometry N [1] | stoichiometry N [2]
GspL (natural protein) MSGVSALFLPPASTAGADGELAVWWVQDGECRRAPFAQALAEIRAPWRLYLPVEAVTACAVNLPTQKARWLRQSLPFAVEEQLADDVEQMHLALGPALADGRHRVFAVQRTWLAAWLALAEGAGKAPASLHVDADCLPGEGSCLFWLEERWLLGGSGAVRLACGSEDWPVLRDSCPPPQRAFAAQEVAPLEGVEVQALAGNPHVWLSEQPLGTDLAQAEFAARQQSSQWRRWRPLLGLVGLWLVLQWGFTLVQAWQLQREGDRYAAQSAELYRQLFPEDRKLINLRAQFDQHLADSASSGGEGQLLGLLGQAATVIGGEPTVSVEQLDFSAARGDVALQVRAPGFDVLERLRSRLSESGLAVQLGSASRDGSTVSARLVIGG | 1 GspL per GspM (printed as 2:2) | –
GspL^peri (domain or fragment) WQLQREGDRYAAQSAELYRQLFPEDRKLINLRAQFDQHLADSASSGGEGQLLGLLGQAATVIGGEPTVSVEQLDFSAARGDVALQVRAPGFDVLERLRSRLSESGLAVQLGSASRDGSTVSARLVIGG | – | 2
